Target: human fibronectin purified from a human plasma fraction on Gelatin Sepharose (human) (UniProt P02751)

## D1-D4 (709-886) polypeptide of the fibronectin binding protein of Staphylococcus aureus J2385, expressed from pBROC 520 in E. coli BL21 (DE3)
  % Adherence Inhibition of S. aureus 8325.4 to fibronectin-coated PMMA coverslips (at 100 µg/ml D1-D4 (709-886)): 97.5%
  % Adherence Inhibition of S. aureus J2385 to fibronectin-coated PMMA coverslips (at 100 µg/ml D1-D4 (709-886)): 78.4%

From US6054572
